The values below come from US20130280279A1, “PHARMACEUTICAL COMPOSITION OF A COMPLEX OF AN ANTI-DIG ANTIBODY AND DIGOXIGENIN THAT IS CONJUGATED TO A PEPTIDE” (HOFFMANN-LA ROCHE INC., priority 2011, published 2013).

*1 amine or outer side, *2 acyl side, *3 side chain or, on linkers, in order; H or OH if unused. Where a SMILES comes first, the peptide text is derived from it. Primed or numbered codes have the meaning given here. Where no end group is shown, it is not given here. [ ]: non-standard residue; d: D form. The star is where a group is joined. Pqa = 4-oxo-6-(1-piperazinyl)-3(4H)-quinazoline-acetic acid (CAS 889958-08-1), O=C(Cn1cnc2ccc(N3CCN([*:1])CC3)cc2c1=O)[*:2]; Pqa″ = 4-oxo-6-(1-piperazinyl)-3(4H)-quinazoline-acetic acid, O=C(Cn1cnc2ccc(N3CCN([*:1])CC3)cc2c1=O)[*:2]; Tyr(2,6-F2) = N[C@@H](Cc1c(F)cc(O)cc1F)C(=O)O; NMeR = CN[C@@H](CCCNC(=N)N)C(=O)O; Piv = CC(C)(C)C(=O)*; Bz = O=C(c1ccccc1)*

The first experiment concerns the target T1, Y2R (Homo sapiens, UniProt P49146).
T1 sequence (P49146 1-381): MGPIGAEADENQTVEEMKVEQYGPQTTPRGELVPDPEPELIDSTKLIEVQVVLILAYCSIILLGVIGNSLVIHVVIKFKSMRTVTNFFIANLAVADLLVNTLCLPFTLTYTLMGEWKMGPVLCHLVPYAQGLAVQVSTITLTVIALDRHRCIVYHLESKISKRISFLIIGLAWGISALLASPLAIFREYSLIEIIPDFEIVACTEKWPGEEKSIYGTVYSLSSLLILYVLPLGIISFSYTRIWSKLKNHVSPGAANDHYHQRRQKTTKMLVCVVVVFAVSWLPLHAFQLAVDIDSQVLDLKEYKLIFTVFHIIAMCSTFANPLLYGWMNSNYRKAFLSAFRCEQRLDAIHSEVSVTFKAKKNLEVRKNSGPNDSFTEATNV
Assay: not given
Conditions: values of WO 2007/065808; read-out: Y2R EC50 (nM) cAMP; cited from earlier work.
“IK-Pqa-RHYLNLVTRQ(N-methyl)RCha [Example 20]”: the EC50 was 0.5 nM.
On to “INle-Pqa-RHYLNWVTRQ(N-methyl)RY (IXXRHYLNWVTRQRY; Nle, Pqa linker, N-methyl Arg) [Example 26]”, for which the EC50 was 0.108 nM.
On to “IK-Pqa-RHYLNLVTRQR-C-α-Me-Tyr [Example 24]”, for which the EC50 is 1.35 nM.
On to “IK-Pqa-RHYLNLVTRQ(N-methyl)R(4-CF3)Phe [Example 16]”, for which the EC50 is 3.55 nM.
Regarding “Cyclohexyl-IK-Pqa-RHYLNWVTRQ(N-methyl)RY (cyclohexyl-IK[Pqa]RHYLNWVTRQ[NMeR]Y; ends and bridges not checked) [Example 31]”, the EC50 was 1.37 nM.
“IK-Pqa-RHYLNLVTRQ(N-methyl)R(3.4-diC1)Phe [Example 19]”: the EC50 was 1.47 nM.
In the case of “IK-Pqa-RHYLNLVTRQ(N-methyl)RF [Example 12]”, the EC50 was 0.69 nM.
With “IK-Pqa-RHYLNLVTRQ(N-methyl)R(2-6 di F)Y [Example 9]”, the EC50 is 0.19 nM.
For “Adamtyl-IK-Pqa-RHYLNWVTRQ(N-methyl)RY (adamantyl-IK[Pqa]RHYLNWVTRQ[NMeR]Y; ends and bridges not checked) [Example 33]”, the EC50 is 2.9 nM.
On to “IK-Pqa-RHYLNLVTRQ(N-methyl)RY [Example 5]”, for which the EC50 is 0.42 nM.
On to “Trimetylacetyl-IK-Pqa-RHYLNWVTRQ(N-methyl)RY (Piv-IK[Pqa″]RHYLNWVTRQ[NMeR]Y) [Example 30]”, for which the EC50 was 0.26 nM.
In the case of “IK-P qa-RHYLNLVTRQ (N-methyl)R(2,3.4,5,6-Penta-F)Phe [Example 18]”, the EC50 is 2.5 nM.
On to “IK-Pqa-RHYLNWVTRQ(N-methyl)RY (IK[Pqa]RHYLNWVTRQ[NMeR]Y; ends and bridges not checked) [Example 25]”, for which the EC50 is 0.25 nM.
On to “IK-Pqa-RHYLNLVTRQ(N-methyl)R(1)Nal [Example 22]”, for which the EC50 was 1.14 nM.
For “Ac-IK-Pqa-RHYLNWVTRQ(N-methyl)R(2-6 di F)Y (Ac-IK[Pqa]RHYLNWVTRQ[NMeR][Tyr(2,6-F2)]) [Example 27]”, the EC50 was 0.07 nM.
Consider “IK-Pqa-RHYLNLVTRQ(N-methyl)R(3-F)Phe [Example 17]”, for which the EC50 was 0.75 nM.
With “Pentyl-IK-Pqa-RHYLNWVTRQ(N-methyl)RY (Pentyl-IK[Pqa″]RHYLNWVTRQ[NMeR]Y) [Example 29]”, the EC50 was 0.51 nM.
For “IK-Pqa-RHYLNLVTRQ(N-methyl)R(2)Nal [Example 23]”, the EC50 is 2.4 nM.
With “IK-Pqa-RHYLNLVTRQ (N-methyl)R(3-5 di F)Y [Example 8]”, the EC50 is 0.36 nM.
As for “IK-Pqa-RHYLNLVTRQ(N-methyl)R(m-)Y [Example 6]”, the EC50 was 1.5 nM.
With “IK-Pqa-RHYLNLVTRQ(N-methyl)RF(O—CH3) [Example 11]”, the EC50 was 0.55 nM.
On to “IK-Pqa-RHYLNLVTRQ(N-methyl)RW (IK[Pqa]RHYLNLVTRQ[NMeR]W; ends and bridges not checked) [Example 21]”, for which the EC50 is 1.06 nM.
With “Benzoyl-IK-Pqa-RHYLNWVTRQ(N-methyl)RY (Bz-IK[Pqa]RHYLNWVTRQ[NMeR]Y; ends and bridges not checked) [Example 32]”, the EC50 is 0.66 nM.

The next experiment deals with H322M cells. Briefly: CytoTox-Glo cytotoxicity assay. To be noted: CytoTox-Glo. It is filed as cell-based, human. As to the method: To evaluate whether additions or alterations of the peptide Melittin, FALLv1 and FALLv2 by digoxygenin alters its biological activity, we performed in vitro assays. As these peptides are cytotoxic, their biological activity can easily be analyzed by monitoring the number of dead cells. To measure this number, the CytoTox-Glo assay (Promega Madison, WI) was used. Table 2 lists results of these CytoTox-Glo-assays that were performed to assess the biological activity of the Melittin, Fallv1 and Fallv2 peptides and their DIG-modified variants. For these assays, H322M cells were seeded at a density of 15.000 cells per well in 96 well plates. The cells were incubated for 24 hours at 37° C., 5% CO2 and 85% humidity in RPMI with 10% FCS, Na+ Pyrovate, L-Glutamine and NEAA mix. The peptide and it's DIG-modified variant were then added to the cells in the concentrations indicated. The cells were incubated for further 48 hours. After this period, the cells were treated with the CytoTox-Glo-assay reagent according to the manufacturers instructions. In brief, this assay detects dead cells via the presence of a protease in the medium that cleaves a […] peptide in the reagent. The luminescence of this assay therefore represents dead cells. The 96 well plates were then analyzed in a InfiniteF200 luminescence reader (Tecan Austria, Groding). […] Not only covalent coupling to haptens, but also complexation of peptides to large antibody molecules may influence their biological activity. Because IgG-derived molecules are large proteins (10-40 fold the size of peptides), it cannot a priori be excluded that such molecules may sterically hinder accessibility of peptide and therefore interfere with biological activity. To address this topic, we analyzed the in vitro activity of peptide-antibody complexes for the cytotoxic peptides FALLv1 and Fam5b. Again, we made use of the fact that these peptide are cytotoxic towards tumor cell lines and therefore tested their functionality in cytotoxicity and viability assays as described above. […] Moreover, utilizing bispecific antibodies for targeting such peptides to tumor cells, we could show increased peptide-mediated cytotoxicity towards targeted cells compared to nontargeted cells (as shown in PCT/EP2010/004051).
As to `CC[C@H](C)[C@H](NC(=O)[C@H](CCCCN)NC(=O)[C@H](CCC(=O)O)NC(=O)[C@H](CCCCN)NC(=O)[C@H](CO)NC(=O)[C@H](CCCCN)NC(=O)[C@H](CCCNC(=N)N)NC(=O)[C@H](Cc1ccccc1)NC(=O)[C@H](Cc1ccccc1)NC(=O)[C@H](CC(=O)O)NC(=O)CNC(=O)[C@H](CC(C)C)NC(=O)[C@H](CC(C)C)NC(=O)[C@H](C)NC(=O)[C@H](Cc1ccccc1)NC(=O)[C@H](CCCNC(=N)N)NC(=O)[C@H](CCCCN)NC(=O)[C@@H](N)CC(N)=O)C(=O)NCC(=O)N[C@@H](CCCCN)C(=O)N[C@@H](CCC(=O)O)C(=O)N[C@@H](Cc1ccccc1)C(=O)N[C@@H](CCCCN)C(=O)N[C@@H](CCCNC(=N)N)C(=O)N[C@H](C(=O)N[C@H](C(=O)N[C@@H](CCC(N)=O)C(=O)N[C@@H](CCCNC(=N)N)C(=O)N[C@H](C(=O)N[C@@H](CCCCN)C(=O)N[C@@H](CC(=O)O)C(=O)N[C@@H](Cc1ccccc1)C(=O)N[C@@H](CC(C)C)C(=O)N[C@@H](CCCNC(=N)N)C(=O)N[C@@H](CC(N)=O)C(=O)N[C@@H](CC(C)C)C(=O)N[C@H](C(=O)N1CCC[C@H]1C(=O)N[C@@H](CCCNC(=N)N)C(N)=O)C(C)C)[C@@H](C)CC)C(C)C)[C@@H](C)CC` [FALLv2] (H-NKRFALLGDFFRKSKEKIGKEFKRIVQRIKDFLRNLVPR-NH2; N-terminus and C-terminus assumed), the “activity upon conjugation to digoxygenin” value is “similarly retained”.
Turning to `CC[C@H](C)[C@H](NC(=O)[C@H](CCCCN)NC(=O)[C@H](CCC(=O)O)NC(=O)[C@H](CCCCN)NC(=O)[C@H](CO)NC(=O)[C@H](CCCCN)NC(=O)[C@H](CCCNC(=N)N)NC(=O)[C@H](Cc1ccccc1)NC(=O)[C@H](Cc1ccccc1)NC(=O)[C@H](CC(=O)O)NC(=O)CNC(=O)[C@H](CC(C)C)NC(=O)[C@H](CC(C)C)NC(=O)[C@H](C)NC(=O)[C@@H](N)Cc1ccccc1)C(=O)NCC(=O)N[C@@H](CCCCN)C(=O)N[C@@H](CCC(=O)O)C(=O)N[C@@H](Cc1ccccc1)C(=O)N[C@@H](CCCCN)C(=O)N[C@@H](CCCNC(=N)N)C(=O)N[C@H](C(=O)N[C@H](C(=O)N[C@@H](CCC(N)=O)C(=O)N[C@@H](CCCNC(=N)N)C(=O)N[C@H](C(=O)N[C@@H](CCCCN)C(=O)N[C@@H](CC(=O)O)C(=O)N[C@@H](Cc1ccccc1)C(=O)N[C@@H](CC(C)C)C(=O)N[C@@H](CCCNC(=N)N)C(=O)N[C@@H](CC(N)=O)C(=O)N[C@@H](CC(C)C)C(=O)N[C@H](C(=O)N1CCC[C@H]1C(=O)N[C@@H](CCCNC(=N)N)C(=O)N[C@H](C(=O)N[C@@H](CCC(=O)O)C(=O)N[C@@H](CO)C(N)=O)[C@@H](C)O)C(C)C)[C@@H](C)CC)C(C)C)[C@@H](C)CC` [FALLv1], the “activity upon conjugation to digoxygenin” value is “similarly retained”.

The same experiment, now with this note: cytotoxicity and viability assays, tumor cell lines.
For “QHRYQQLGAGLKVLFKKTHRILRRLFNLAK (listed as Homo sapiens) [Fam5b]”, the “biological activity of digoxigenated peptide complexed with digoxigenin binding antibody derivatives” value is “retain their biological activities”.
Same read-out and setting: to `CC[C@H](C)[C@H](NC(=O)[C@H](CCCCN)NC(=O)[C@H](CCC(=O)O)NC(=O)[C@H](CCCCN)NC(=O)[C@H](CO)NC(=O)[C@H](CCCCN)NC(=O)[C@H](CCCNC(=N)N)NC(=O)[C@H](Cc1ccccc1)NC(=O)[C@H](Cc1ccccc1)NC(=O)[C@H](CC(=O)O)NC(=O)CNC(=O)[C@H](CC(C)C)NC(=O)[C@H](CC(C)C)NC(=O)[C@H](C)NC(=O)[C@@H](N)Cc1ccccc1)C(=O)NCC(=O)N[C@@H](CCCCN)C(=O)N[C@@H](CCC(=O)O)C(=O)N[C@@H](Cc1ccccc1)C(=O)N[C@@H](CCCCN)C(=O)N[C@@H](CCCNC(=N)N)C(=O)N[C@H](C(=O)N[C@H](C(=O)N[C@@H](CCC(N)=O)C(=O)N[C@@H](CCCNC(=N)N)C(=O)N[C@H](C(=O)N[C@@H](CCCCN)C(=O)N[C@@H](CC(=O)O)C(=O)N[C@@H](Cc1ccccc1)C(=O)N[C@@H](CC(C)C)C(=O)N[C@@H](CCCNC(=N)N)C(=O)N[C@@H](CC(N)=O)C(=O)N[C@@H](CC(C)C)C(=O)N[C@H](C(=O)N1CCC[C@H]1C(=O)N[C@@H](CCCNC(=N)N)C(=O)N[C@H](C(=O)N[C@@H](CCC(=O)O)C(=O)N[C@@H](CO)C(N)=O)[C@@H](C)O)C(C)C)[C@@H](C)CC)C(C)C)[C@@H](C)CC` [FALLv1] belongs “retain their biological activities”.
